# Test system: MS2 coat protein
# Assay: apparent KD of MS2 coat protein; designed switch direction (-1 OFF switch, 1 ON switch): -1; higher = weaker reporter binding
# Summary of the method: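 The apparent KD reported per design is the median over clusters of curve fits to normalised cluster fluorescence. The RNA switches were transcribed on Illumina chips by stalled E. coli RNA polymerase. SNAP-549-labelled MS2 coat protein was titrated from 0.7 or 1.5 nM, doubling up to 3 µM, in Tris-HCl pH 7.5 buffer containing KCl, MgCl2, BSA, DTT, tRNA and Tween-20, with no input, 200 uM small-molecule ligand, or an oligonucleotide input.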
# [1] = Eterna round: R95, input ligand: FMN 200 uM
# [2] = Eterna round: R95, input ligand: microRNA oligo, concentration not stated
# [3] = Eterna round: R95, input ligand: none
# [4] = input ligand: microRNA oligo, concentration not stated
Sequence,apparent KD of MS2 coat protein [1],apparent KD of MS2 coat protein [2],apparent KD of MS2 coat protein [3],apparent KD of MS2 coat protein (input ligand: FMN 200 uM),apparent KD of MS2 coat protein [4],apparent KD of MS2 coat protein (input ligand: none)
GCUUGGCGAGGAUAUACAUGAGGAUCACCCAUGUGAGAGAAAUAAGUGAGGAAGAAAAGUAGAAGGCGCUGAGG [Mat - Exclusion 3 - Mod of Salish D59] (puzzle: Exclusion 3),0.167 µM,0.0589 µM,0.0611 µM,–,–,–
"GCUUGUGGGCAAGGAUAUCCUGCGCUGUUCUGGUUCGUGUCUGUCACAUGAGGAUCACCCAUGUGGGAGAAGGUGCCUGUGGCG [Design 66] (Eterna round: R96, puzzle: Exclusion NG 2)",–,–,–,0.022 µM,0.0174 µM,0.0242 µM
"GCUUGUGGGCAAGGAUAUCCUGCGCUGUUCUGGUUCGUGUCUGUCACAUGAGGAUCACCCAUGUGGGAGAAGGUGCCUUUGGUG [Design 64] (Eterna round: R96, puzzle: Exclusion NG 2)",–,–,–,0.0134 µM,0.0109 µM,0.0149 µM
"GCUUUAUGCUCGUUAUAACACAUGAGGAUCACCCAUGUUCGGGCUUACGAGUCGUUCUGAAUGUGACCCUGCAUGAG [Eternabot (L2) Solution 47] (Eterna round: R97, puzzle: Sensor, turn-off variant 1)",–,–,–,0.2 µM,–,0.193 µM
"GCUUUUGGGCAAGGAUAUCCUGCGCGGUUCCGGUUCGUGUCUGUCACAUGAGGAUCACCCAUGUGGGAGAAGGUGCCUGCGGUG [Design 73] (Eterna round: R96, puzzle: Exclusion NG 2)",–,–,–,0.0215 µM,0.0117 µM,0.019 µM
GGAAAGCAAGGAUAUACAAGUAAACGAUGGAAAGUAGAGAGACAUGAGGAUCACCCAUGUAGAAGGUGCGAGAG [JR_Exclu2_Sub036] (puzzle: Exclusion 2),0.0241 µM,0.0301 µM,0.0222 µM,–,–,–
GGAAAGGUAGGAUAUACGAAAAAAAAGGGUAGAAAAAAAACACAUGAGGAUCACCCAUGUAGAAGGACCAAAAG [salish99_ex2_r3_036] (puzzle: Exclusion 2),0.0448 µM,0.0361 µM,0.033 µM,–,–,–
GGAAAGGUAGGAUAUACGAAGAAAAAGGGUAGAAGAAAAACACAUGAGGAUCACCCAUGUAGAAGGACCAAAGG [Mat - Exclusion 2 - Mod of my Tesla design - D2] (puzzle: Exclusion 2),0.0514 µM,0.0221 µM,0.0234 µM,–,–,–
GGAAAGUGAGGAUAUGGUAAAGUAAGUAUGUAGUAAGUAAUCCAGAAGGCACAUGAGGAUCACCCAUGUAAAGG [Mat - Exclusion 4 - D101] (puzzle: Exclusion 4),0.0248 µM,0.0254 µM,0.0268 µM,–,–,–
GGAGAGUCAGGAUAUACAUGAGGAUCACCCAUGUUGGAAAGUGGAGGGACGGGAGUCCGUAGAAGGGACGAGAG [Identicality] (puzzle: Exclusion 3),–,0.0277 µM,–,–,–,–
"GGAGGAAACGUAGGAUAUUGAAUAAAGCGGAAACGCAAGACAUGAGGAUCACCCAUGUGUCCGGACGAGAAGGGCGAAGAAGAA [AK 1] (Eterna round: R96, puzzle: Exclusion NG 2)",–,–,–,0.0598 µM,0.0601 µM,0.0808 µM
"GGAGGAGGAGUGAGGAUAUGGUGGUGGAAACACCACCAGAAGGCACAUGAGGAUCACCCAUGUGAUGUAGAGAA [AK-MS2ROC-r4-Bmoexclusion4-16] (Eterna round: R97, puzzle: Brourd's mod of Exclusion 4)",–,–,–,0.0274 µM,–,0.016 µM
"GGAGGCCAGUAAGGAUAUUCAUGGUAGAUUCAUGAAGAAGGUACGGAGUGUCCUGACAUGAGGAUCACCCAUGUAGCCUCCAAG [Betien] (Eterna round: R96, puzzle: Exclusion NG 1)",–,–,–,0.0764 µM,0.0251 µM,0.0343 µM
"GGAUAAAACUGAGGAUAUGAGGAGAGAGAGAGAUCAGAAGGCAGACAUGAGGAUCACCCAUGUGAGUUCUCGAUAAGAAACACG [Prohibition 56 - Jieux - Exclusion NG 1] (Eterna round: R96, puzzle: Exclusion NG 1)",–,–,–,0.0589 µM,0.0307 µM,0.0383 µM
"GGAUAUAACGUAGGAUAUCUGAGAAAUAGAUGAAGAGAAGGACGACAUGAGGAUCACCCAUGUGAUCUAUCAAUAUUAUACAUG [Prohibition 100 - Jieux - Exclusion NG 1] (Eterna round: R96, puzzle: Exclusion NG 1)",–,–,–,–,0.332 µM,–
"GGAUAUAACGUAGGAUAUGAGCGCAACUGACGAUCAGAAGGACGACAUGAGGAUCACCCAUGUGAUCUAUCAAUAUUAUACAUG [Prohibition 95 - Jieux - Exclusion NG 1] (Eterna round: R96, puzzle: Exclusion NG 1)",–,–,–,0.59 µM,0.495 µM,0.977 µM
"GGAUCAUAUGUCAGGAUAUGCUGGUCCUUGGAUCAGCAGAAGGGACAUGAGGAUCACCCAUGUCAUGAAGAUCC [Eli bmx4 4.79] (Eterna round: R97, puzzle: Brourd's mod of Exclusion 4)",–,–,–,0.203 µM,–,0.0283 µM
"GGAUCGAGUGUGAGGAUAUACCUAUGGAUACAUAGGUAGAAGGCACAUGAGGAUCACCCAUGUUCCUACGGUCC [Eli bmx4 4.08] (Eterna round: R97, puzzle: Brourd's mod of Exclusion 4)",–,–,–,0.713 µM,–,0.0623 µM
GGAUGUUAGGAGGAUAUCUGACGUCGAAAAGAAGGAGAAGGCCUGACAUGAGGAUCACCCAUGUGGUCAAAAGA [Eresinbi] (puzzle: Exclusion 6),1.2 µM,0.11 µM,0.0978 µM,–,–,–
"GGAUUGCGGCAAGGAUAUCUUUGUCAACAUAAAACAUGAGGAUCACCCAUGUGCAUCUUCGUGUGAGAGAAGGUGCGGCGAUCC [Geceretima] (Eterna round: R96, puzzle: Exclusion NG 2)",–,–,–,1.62 µM,0.248 µM,0.18 µM
"GGAUUUACUGAGGAUAUUACAUCACCCGAUUGAUAAGAAGGCAGAACAUGAGGAUCACCCAUGUGGGUAGUCAA [Polaris3] (Eterna round: R97, puzzle: Exclusion 6)",–,–,–,0.0701 µM,–,0.111 µM
GGCAUAAUGUAGGAUAUCGUAAUGGAAACAUUACGAGAAGGGCAAACAUGAGGAUCACCCAUGUUCCUUAAGCC [Mat - Exclusion 6 - Eli Mod - D70] (puzzle: Exclusion 6),0.0187 µM,0.0142 µM,0.0154 µM,–,–,–
GGCAUAAUGUAGGAUAUCGUAUUGGAAACAAUACGAGAAGGGCAAACAUGAGGAUCACCCAUGUUCCUUAAGCC [Mat - Exclusion 6 - Eli Mod - D71] (puzzle: Exclusion 6),–,0.0151 µM,–,–,–,–
"GGCAUCGGAGGAUAUACUAAUGGUGAUGCCCGAAGCUUUCUACUUGAGGAUCACCCAAGUAGAAGGCCGAUGCC [jl-ex2.4.80 ViennaUCT mod] (Eterna round: R97, puzzle: Exclusion 2)",–,–,–,0.011 µM,–,0.0131 µM
"GGCAUGUAAGGAUAUCUAUCGGUGAGAAAACCAAUUGGGCAAGAGAAGGUACAUGAGGAUCACCCAUGUGGACC [Eternabot (L1) Solution 9] (Eterna round: R97, puzzle: Exclusion 4)",–,–,–,0.135 µM,–,0.044 µM
"GGCCGGCGAGGAUAUACCGAAUGAAGGUGAUAUGAAUGAUUACAUGAGGAUCACCCAUGUAGAAGGCGCCGGCC [Default title] (Eterna round: R97, puzzle: Exclusion 2)",–,–,–,0.327 µM,–,0.146 µM
"GGCCUUCCACGAGCUUUUUACAUGAGGAUCACCCAUGUGGUUUUUAGUCUUAUCCCGGGCCCGCUGUCGGGCCCGGG [-32.2, -52.8, A 13%] (Eterna round: R97, puzzle: Sensor, turn-off variant 1)",–,–,–,0.0291 µM,–,0.033 µM
"GGCGAAGUAGGAUAUACAUGAGGAUCACCCAUGUAACCAGAUGGCGUAGGUCUUCUAUGUAGAAGGGCUACGCC [jl-ex3-4.34 ViennaUCT mod] (Eterna round: R97, puzzle: Exclusion 3)",–,–,–,0.0169 µM,–,0.017 µM
"GGCGACCUAGGAUAUACAUGAGGAUCACCCAUGUUUAUCUAUUAGAUGAAGACGGGUUGUAGAAGGAGGAUAUU [JL Geriin mod] (Eterna round: R96, puzzle: Exclusion 3)",–,–,–,0.0195 µM,0.0146 µM,0.0202 µM
GGCGACCUAGGAUAUACAUGAGGAUCACCCAUGUUUAUCUAUUAGAUGAAGACGGGUUGUAGAAGGAGGAUAUU [JL Geriin mod] (puzzle: Exclusion 3),–,0.0146 µM,–,–,–,–
